Starred links: 1 amine or outer side, 2 acyl side, 3 side chain; linkers in the order of their positions; H or OH if unused. Positions of bridges follow the written chain, without caps; N, C: chain ends. Groups on a side chain read outwards from the residue. No end group written: not given here. *: point of attachment. C17 diacid = O=C(O)CCCCCCCCCCCCCCCC(=O)*; γGlu = O=C(O)[C@H](CCC(=O)[*:2])N[*:1]
How the values were obtained:
human amylin 3 receptor = biological target: T1, human amylin 3 receptor (human, UniProt P30988 25-474; O60896 24-148); assay: cell-based or functional assay
T1 sequence (looked up) 1: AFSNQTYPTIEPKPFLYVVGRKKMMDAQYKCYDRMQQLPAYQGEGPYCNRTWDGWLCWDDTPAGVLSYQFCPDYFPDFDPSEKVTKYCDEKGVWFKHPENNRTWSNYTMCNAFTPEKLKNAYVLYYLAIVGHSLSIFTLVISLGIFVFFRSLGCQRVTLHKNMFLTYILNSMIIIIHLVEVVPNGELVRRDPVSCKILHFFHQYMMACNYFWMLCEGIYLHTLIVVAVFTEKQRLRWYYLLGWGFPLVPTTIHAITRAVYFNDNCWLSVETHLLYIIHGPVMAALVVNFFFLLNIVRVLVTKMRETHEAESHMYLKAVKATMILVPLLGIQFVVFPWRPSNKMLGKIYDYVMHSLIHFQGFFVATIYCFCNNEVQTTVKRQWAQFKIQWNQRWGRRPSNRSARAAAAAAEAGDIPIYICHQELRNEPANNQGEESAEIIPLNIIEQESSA
T1 sequence (looked up) 2: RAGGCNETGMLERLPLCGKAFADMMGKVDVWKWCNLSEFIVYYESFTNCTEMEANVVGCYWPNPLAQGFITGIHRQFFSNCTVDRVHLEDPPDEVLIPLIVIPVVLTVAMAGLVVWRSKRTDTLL

[1] = biological target: T2, human calcitonin receptor (human, UniProt P30988 25-474); assay: cell-based or functional assay
T2 sequence (looked up): T1 sequence (looked up) 1

B1: Compound A80 (peptide)
peptide: SCNTSTCATQRLANEK([γGlu-C17 diacid])HKSSNNFGPILPPTKVGSETY-NH2
modifications: disulfide 2-7; N-terminus assumed
SMILES: CC[C@H](C)[C@H](NC(=O)[C@@H]1CCCN1C(=O)CNC(=O)[C@H](Cc1ccccc1)NC(=O)[C@H](CC(N)=O)NC(=O)[C@H](CC(N)=O)NC(=O)[C@H](CO)NC(=O)[C@H](CO)NC(=O)[C@H](CCCCN)NC(=O)[C@H](Cc1c[nH]cn1)NC(=O)[C@H](CCCCNC(=O)CC[C@H](NC(=O)CCCCCCCCCCCCCCCC(=O)O)C(=O)O)NC(=O)[C@H](CCC(=O)O)NC(=O)[C@H](CC(N)=O)NC(=O)[C@H](C)NC(=O)[C@H](CC(C)C)NC(=O)[C@H](CCCNC(=N)N)NC(=O)[C@H](CCC(N)=O)NC(=O)[C@@H](NC(=O)[C@H](C)NC(=O)[C@@H]1CSSC[C@H](NC(=O)[C@@H](N)CO)C(=O)N[C@@H](CC(N)=O)C(=O)N[C@@H]([C@@H](C)O)C(=O)N[C@@H](CO)C(=O)N[C@@H]([C@@H](C)O)C(=O)N1)[C@@H](C)O)C(=O)N[C@@H](CC(C)C)C(=O)N1CCC[C@H]1C(=O)N1CCC[C@H]1C(=O)N[C@H](C(=O)N[C@@H](CCCCN)C(=O)N[C@H](C(=O)NCC(=O)N[C@@H](CO)C(=O)N[C@@H](CCC(=O)O)C(=O)N[C@H](C(=O)N[C@@H](Cc1ccc(O)cc1)C(N)=O)[C@@H](C)O)C(C)C)[C@@H](C)O
- pEC50 (cAMP accumulation), 0% HSA (human amylin 3 receptor): 11.3 pEC50
- pEC50 (cAMP accumulation), 0.1% HSA (human amylin 3 receptor): 10.4 pEC50
- pEC50 (cAMP accumulation), 4% HSA (human amylin 3 receptor): 8.7 pEC50
- pEC50 (cAMP accumulation), 0% HSA [1]: 10.2 pEC50
- pEC50 (cAMP accumulation), 0.1% HSA [1]: 9.2 pEC50
- pEC50 (cAMP accumulation), 4% HSA [1]: 7.7 pEC50

From US20200115430A1 (I2O THERAPEUTICS, published 2020)
